Test results taken from paper PMC6983471.

How the values were obtained:
[1] = target: VEK50[RH2/AA] (VEK50^ΔRH2), VEK50 with R30H31 replaced by Ala-Ala (Streptococcus pyogenes (isolate AP53)); assay: AUC
[2] = target: VEK50[RH1/AA] (VEK50^ΔRH1), VEK50 with R17H18 replaced by Ala-Ala (Streptococcus pyogenes (isolate AP53)); assay: AUC
[3] = target: VEK50[RH2/AA] (VEK50^ΔRH2), VEK50 with R30H31 replaced by Ala-Ala (Streptococcus pyogenes (isolate AP53)); assay: NMR titration
[4] = target: VEK50[RH1/AA] (VEK50^ΔRH1), VEK50 with R17H18 replaced by Ala-Ala (Streptococcus pyogenes (isolate AP53)); assay: NMR titration
[5] = target: VEK50[RH2/AA] (VEK50^ΔRH2), VEK50 with R30H31 replaced by Ala-Ala (Streptococcus pyogenes (isolate AP53)); assay: ITC
[6] = target: VEK50[RH1/AA] (VEK50^ΔRH1), VEK50 with R17H18 replaced by Ala-Ala (Streptococcus pyogenes (isolate AP53)); assay: ITC

K2hPg, kringle 2 domain of human plasminogen, triple variant C4G/E56D/L72Y (domain or fragment)
stoichiometry N (K2hPg per peptide) [1]: 1
stoichiometry N (K2hPg per peptide) [2]: 1
stoichiometry N (K2hPg per peptide) [3]: 1
stoichiometry N (K2hPg per peptide) [4]: 1
Kd [5]: 42 nM
stoichiometry N (K2hPg per peptide) [5]: 1
Kd [6]: 9 nM
stoichiometry N (K2hPg per peptide) [6]: 1
